According to patent US20100317083A1:

What was measured:
[1] = target: human IgG3 purified from human plasma (human) (UniProt P01860); test: cell-based or functional assay
[2] = target: human IgG3 purified from human plasma (human) (UniProt P01860); test: SPR (BIAcore), IgG3 immobilized, EndoS(E235Q) injected, deglycosylated IgG flow cell as reference

UniProt P01860, sequence (P01860 whole entry, form in doubt): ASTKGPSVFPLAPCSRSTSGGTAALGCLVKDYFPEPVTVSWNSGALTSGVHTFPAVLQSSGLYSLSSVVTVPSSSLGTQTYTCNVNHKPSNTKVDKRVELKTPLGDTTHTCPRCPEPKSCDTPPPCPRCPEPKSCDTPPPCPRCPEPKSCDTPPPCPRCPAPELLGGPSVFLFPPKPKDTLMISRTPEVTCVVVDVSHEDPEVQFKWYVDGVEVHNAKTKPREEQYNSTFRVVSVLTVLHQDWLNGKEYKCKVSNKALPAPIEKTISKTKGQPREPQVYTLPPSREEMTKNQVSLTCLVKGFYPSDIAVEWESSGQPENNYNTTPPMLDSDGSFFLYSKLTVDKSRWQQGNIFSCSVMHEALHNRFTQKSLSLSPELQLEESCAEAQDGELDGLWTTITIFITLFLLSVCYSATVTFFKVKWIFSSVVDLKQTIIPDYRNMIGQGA

**Q.** With “EndoS (Endoglycosidase S) from S. pyogenes AP1, recombinant, without GST (from UniProt Q99Y92 37-995) (enzyme)” as the substance, how does the SDS-PAGE migration of IgG after incubation with EndoS; LCA lectin blot [1] read?
**A.** 3 kDa

**Q.** Which Kd [2] does the source give for “EndoS(E235Q), modified EndoS polypeptide lacking IgG endoglycosidase activity (from UniProt Q99Y92 37-995) (enzyme)” here?
**A.** 83 nM

**Q.** And the koff [2]?
**A.** 0.0089 s⁻¹

**Q.** What about the kon [2] of the same substance?
**A.** 107000 M⁻¹ s⁻¹
